The target of data set [1] is T1, NFYA-1 (T08D10.1), MBP fusion;NFYB-1, MBP fusion;NFYC-1, MBP fusion (Caenorhabditis elegans;Caenorhabditis …, UniProt G5EEG1;O17286;O17072 1-482;1-403;1-232, ||).
T1 sequence 1: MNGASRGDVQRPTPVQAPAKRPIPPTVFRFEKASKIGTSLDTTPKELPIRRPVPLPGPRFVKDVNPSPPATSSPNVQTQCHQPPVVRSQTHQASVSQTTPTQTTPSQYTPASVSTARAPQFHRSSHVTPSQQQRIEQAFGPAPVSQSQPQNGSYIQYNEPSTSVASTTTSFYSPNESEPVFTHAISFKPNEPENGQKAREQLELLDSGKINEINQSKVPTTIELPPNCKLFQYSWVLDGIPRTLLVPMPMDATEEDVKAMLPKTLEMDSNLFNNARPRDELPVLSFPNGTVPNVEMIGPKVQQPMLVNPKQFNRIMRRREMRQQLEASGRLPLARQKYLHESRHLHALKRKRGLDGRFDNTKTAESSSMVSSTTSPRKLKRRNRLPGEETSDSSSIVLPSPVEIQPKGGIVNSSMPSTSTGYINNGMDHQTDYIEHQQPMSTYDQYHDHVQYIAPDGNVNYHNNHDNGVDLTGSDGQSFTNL
T1 sequence 2: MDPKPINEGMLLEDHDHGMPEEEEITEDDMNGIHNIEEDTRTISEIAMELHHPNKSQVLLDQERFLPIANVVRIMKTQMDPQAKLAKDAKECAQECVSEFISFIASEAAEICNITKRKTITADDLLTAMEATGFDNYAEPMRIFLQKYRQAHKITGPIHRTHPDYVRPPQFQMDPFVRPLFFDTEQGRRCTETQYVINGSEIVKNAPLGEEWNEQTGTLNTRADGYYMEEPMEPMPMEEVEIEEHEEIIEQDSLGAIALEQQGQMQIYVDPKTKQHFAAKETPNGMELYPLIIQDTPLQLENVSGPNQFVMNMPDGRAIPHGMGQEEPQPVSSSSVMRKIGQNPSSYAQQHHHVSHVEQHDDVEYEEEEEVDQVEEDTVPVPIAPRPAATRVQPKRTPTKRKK
T1 sequence 3: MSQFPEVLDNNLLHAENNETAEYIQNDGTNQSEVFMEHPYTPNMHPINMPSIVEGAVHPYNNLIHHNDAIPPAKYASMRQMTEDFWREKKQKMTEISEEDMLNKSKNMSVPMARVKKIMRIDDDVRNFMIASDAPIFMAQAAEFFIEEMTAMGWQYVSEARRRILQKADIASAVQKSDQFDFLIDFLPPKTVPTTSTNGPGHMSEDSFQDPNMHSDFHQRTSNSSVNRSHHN
Put plainly: EMSA.

The target of data set [2] is T1, NFYA-1 (T08D10.1), MBP fusion;NFYB-1, …. Put plainly: competition.
For data set [3] the target is unchanged. Put plainly: competition. This is another data set of the same source.

The text below walks through data of article PMC8934265.

Substitutions are numbered along the chain they refer to.

B1: CCAAT box probe (dsDNA)
DNA 1: AGTTGTAGGCCTCTGCTTCCTGACCAATCTACAGAATAGGCTCCGCCTTC
DNA 2: AGTTGAAGGCGGAGCCTATTCTGTAGATTGGTCAGGAAGCAGAGGCCTAC
Regarding B1, in data set [1], the binding result is “binds”.

B2: CCAAT box wild-type competitor (+CAAT) (dsDNA)
DNA 1: B1 DNA 1
DNA 2: B1 DNA 2
For the molecule B2, the binding result in data set [2] was “binds”.

B3: CCAAT box mutant competitor (+mut) (dsDNA)
DNA 1: B1 DNA 1 with C25A, A26T, A27G
DNA 2: B1 DNA 2 with T28C, T29A, G30T
With B3, the binding result in data set [3] is given as “no binding”.
